{"source": "paper PMC7733473", "about": "“Aberrant interaction of FUS with the U1 snRNA provides a molecular mechanism of FUS induced amyotrophic lateral sclerosis”", "key": {"FUS-RRM (RRM-RGG2) [1]": {"molecular_target": "FUS-RRM (RRM-RGG2) (UniProt P35637)", "sequence (P35637 260-390)": "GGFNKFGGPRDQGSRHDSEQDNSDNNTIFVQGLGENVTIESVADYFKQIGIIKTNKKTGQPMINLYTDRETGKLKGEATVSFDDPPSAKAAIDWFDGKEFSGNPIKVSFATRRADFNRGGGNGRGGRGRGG", "assay": "ITC", "conditions": "n = 0.85; K = (1.25 ± 0.08)e5; 13C/15N in RNA-observed NMR; ITC: 10 mM Na phosphate pH 6.8, 50 mM NaCl, 1 mM β-mercaptoethanol, 25 °C; NMR 313 K; SEC: 10 mM Na phosphate pH 6.8, 100 mM NaCl, 2 mM DTT; EMSA: 10 mM HEPES …"}, "FUS-RBD (RRM-RGG2-ZnF) [2]": {"test_system": "FUS-RBD (RRM-RGG2-ZnF)", "assay": "competition", "conditions": "equimolar Sm proteins and U1-70K (1-216) present; ITC: 10 mM Na phosphate pH 6.8, 50 mM NaCl, 1 mM β-mercaptoethanol, 25 °C; NMR 313 K; SEC: 10 mM Na phosphate pH 6.8, 100 mM NaCl, 2 mM DTT; EMSA: 10 mM HEPES …; scale: % reduction of FUS capacity to impair core snRNP assembly"}, "[3]": {"test_system": "FUS-RBD WT, EMSA construct", "assay": "EMSA", "conditions": "5 mM Mg2+, yeast tRNA and salmon sperm DNA; value given jointly with ITC; ITC: 10 mM Na phosphate pH 6.8, 50 mM NaCl, 1 mM β-mercaptoethanol, 25 °C; NMR 313 K; SEC: 10 mM Na phosphate pH 6.8, 100 mM NaCl, 2 mM DTT; EMSA: 10 mM HEPES …"}, "FUS-RBD (RRM-RGG2-ZnF) [4]": {"test_system": "FUS-RBD (RRM-RGG2-ZnF)", "assay": "ITC", "conditions": "n = 0.92; K = (1.37 ± 0.23)e7; ITC: 10 mM Na phosphate pH 6.8, 50 mM NaCl, 1 mM β-mercaptoethanol, 25 °C; NMR 313 K; SEC: 10 mM Na phosphate pH 6.8, 100 mM NaCl, 2 mM DTT; EMSA: 10 mM HEPES …"}, "FUS-RRM (RRM-RGG2) [5]": {"molecular_target": "FUS-RRM (RRM-RGG2) (UniProt P35637 260-390)", "sequence (P35637 260-390)": "as above", "assay": "NMR titration; ITC: 10 mM Na phosphate pH 6.8, 50 mM NaCl, 1 mM β-mercaptoethanol, 25 °C; NMR 313 K; SEC: 10 mM Na phosphate pH 6.8, 100 mM NaCl, 2 mM DTT; EMSA: 10 mM HEPES pH 7.3, 100 mM KCl, 5 mM MgCl2, tRNA and ssDNA 10 µg/ml each, room temperature", "conditions": "protein: recombinant"}}}
{"molecule": "U1 SL3", "values": [{"measurement": "Kd", "setting": "FUS-RRM (RRM-RGG2) [1]", "value": 8000, "unit": "nM"}]}
{"molecule": "U1 SL34", "values": [{"measurement": "binding signal", "setting": "FUS-RBD (RRM-RGG2-ZnF) [2]", "value": 75}, {"measurement": "Kd", "setting": "[3]", "value": 70, "unit": "nM"}, {"measurement": "Kd", "setting": "FUS-RBD (RRM-RGG2-ZnF) [4]", "value": 70, "unit": "nM"}]}
{"molecule": "GGCUCUGGUUUCUUCGGGAACAACUCUGAGCC (structured_RNA)", "note": "[U5 IL-1 fragment]", "values": [{"measurement": "binding result", "setting": "FUS-RRM (RRM-RGG2) [5]; hairpin with internal bulge, UUCG loop", "value": "binds"}]}
{"molecule": "GGACUUGAAAUAUAGUCC (structured_RNA)", "note": "[U4 3'-ISL fragment]", "values": [{"measurement": "binding result", "setting": "FUS-RRM (RRM-RGG2) [5]; hairpin", "value": "binds"}]}
{"molecule": "UAUACUAA (ssRNA)", "note": "[U6 21-28]", "values": [{"measurement": "binding result", "setting": "FUS-RRM (RRM-RGG2) [5]; single strand", "value": "binds"}]}
